Measured values reported in patent publication US20230303636A1 (UNIVERSITY COURT OF THE UNIVERSITY OF GLASGOW, published 2023).

B1: pyocin AP41 immunity protein with C-terminal His6-tag (other)
chain: MDIKNNLSDYTESEFLEIIEEFFKNKSGLKGSELEKRMDKLVKHFEEVTSHPRKSGVIFHPKPGFETPEGIVKEVKEWRAANGLPGFKAG
notes: It is not explicitly tied to the C763 construct; also called ImAP41; not shown: C-terminal His6-tag from pET21a (XhoI site in place of the stop codon)
B2: pyocin S2 immunity protein (other)
chain: MKSKISEYTEKEFLEFVKDIYTNNKKKFPTEESHIQAVLEFKKLTEHPSGSDLLYYPNENREDSPAGVVKEVKEWRASKGLPGFKAG
notes: also called ImS2

Assays:
pyocin AP41 = molecular target: T1, pyocin AP41 (Pseudomonas aeruginosa (gene amplified …)); assay: co-expression in E. coli; complex purified on a His Trap column and by gel filtration
T1 chain: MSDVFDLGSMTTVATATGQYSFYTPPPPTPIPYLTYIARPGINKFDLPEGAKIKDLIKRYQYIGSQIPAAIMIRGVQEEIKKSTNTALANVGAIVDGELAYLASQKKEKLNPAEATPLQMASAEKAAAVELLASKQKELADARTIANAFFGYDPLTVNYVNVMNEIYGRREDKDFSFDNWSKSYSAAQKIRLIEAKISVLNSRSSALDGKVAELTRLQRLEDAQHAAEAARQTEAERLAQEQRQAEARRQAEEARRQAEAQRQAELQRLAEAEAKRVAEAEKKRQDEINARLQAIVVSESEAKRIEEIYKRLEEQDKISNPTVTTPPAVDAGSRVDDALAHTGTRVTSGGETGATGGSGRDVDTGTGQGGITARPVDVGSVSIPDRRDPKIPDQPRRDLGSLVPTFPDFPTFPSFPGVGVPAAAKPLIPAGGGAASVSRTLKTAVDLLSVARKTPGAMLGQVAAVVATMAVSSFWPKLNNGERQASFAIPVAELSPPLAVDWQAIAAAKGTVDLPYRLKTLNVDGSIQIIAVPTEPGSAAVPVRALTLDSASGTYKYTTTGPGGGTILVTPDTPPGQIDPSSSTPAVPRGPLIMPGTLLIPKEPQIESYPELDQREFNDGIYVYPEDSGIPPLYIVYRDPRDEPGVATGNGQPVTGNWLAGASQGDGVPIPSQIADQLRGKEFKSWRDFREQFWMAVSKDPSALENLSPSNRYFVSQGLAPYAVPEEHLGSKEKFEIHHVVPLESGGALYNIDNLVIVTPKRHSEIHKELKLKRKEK

pyocin S2 = pyocin S2 (Pseudomonas aeruginosa, UniProt Q06584 1-689); assay: purification of the complex, method only by reference
Sequence of pyocin S2 (Q06584 whole entry): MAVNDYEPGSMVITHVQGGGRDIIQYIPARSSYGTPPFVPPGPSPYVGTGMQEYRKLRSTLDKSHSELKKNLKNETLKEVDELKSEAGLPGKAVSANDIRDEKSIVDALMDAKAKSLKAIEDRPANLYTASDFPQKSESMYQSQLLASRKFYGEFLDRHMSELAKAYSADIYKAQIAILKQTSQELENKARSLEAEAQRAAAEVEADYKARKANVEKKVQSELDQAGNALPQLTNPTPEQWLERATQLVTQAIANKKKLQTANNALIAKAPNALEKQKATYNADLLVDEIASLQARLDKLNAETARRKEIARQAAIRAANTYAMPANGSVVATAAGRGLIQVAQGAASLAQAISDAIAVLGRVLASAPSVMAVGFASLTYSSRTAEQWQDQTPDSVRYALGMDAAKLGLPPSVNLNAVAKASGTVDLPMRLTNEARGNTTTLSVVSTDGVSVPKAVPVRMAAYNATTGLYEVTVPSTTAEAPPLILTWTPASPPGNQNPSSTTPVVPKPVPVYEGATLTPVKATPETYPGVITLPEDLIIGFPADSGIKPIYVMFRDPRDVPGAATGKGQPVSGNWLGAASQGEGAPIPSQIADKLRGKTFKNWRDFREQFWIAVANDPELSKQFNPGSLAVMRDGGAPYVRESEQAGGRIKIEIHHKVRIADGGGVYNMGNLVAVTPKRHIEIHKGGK

Row | Binder | binding result (pyocin AP41) | binding result (pyocin S2)
1 | B1 | binds | –
2 | B2 | – | binds
